{
  "source": "paper PMC5928214",
  "about": "“Direct binding of CEP85 to STIL ensures robust PLK4 activation and efficient centriole assembly” (Nature Communications, 2018)",
  "key": {"[1]": {"molecular_target": "3xStrep-GFP-tagged STIL", "assay": "microtubule recruitment assay in cells (MAP7-mCherry-CEP85 / GFP-STIL co-transfection, fluorescence microscopy)", "settings": "U-2 OS STIL CRISPR KO cells, co-transfected for 24 h; parent: 98; read off a plot"}, "[2]": {"molecular_target": "T1, H. sapiens CEP85 570-656 (CEP85 cc4) (Homo sapiens (Human), UniProt Q6P2H3)", "T1 chain": "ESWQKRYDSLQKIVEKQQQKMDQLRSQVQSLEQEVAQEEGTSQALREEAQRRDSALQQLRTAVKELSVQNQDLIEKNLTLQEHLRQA", "assay": "ITC (25 °C, plus AUC); text gives only a range of ~14-65 µM, nM is its midpoint; affinity varies ~14-65 µM with experimental conditions; CEP85 cc4 must be dimeric to bind (dimer favoured at reduced temperature)"}, "[3]": {"molecular_target": "T2, H. sapiens CEP85 570-656 (CEP85 cc4) (human, UniProt Q6P2H3 570-656)", "T2 chain": "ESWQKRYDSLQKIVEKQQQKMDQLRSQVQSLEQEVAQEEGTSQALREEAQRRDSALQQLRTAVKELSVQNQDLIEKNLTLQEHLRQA", "assay": "ITC; 10 °C"}, "[4]": {"molecular_target": "the molecule itself", "assay": "crystal structure; H. sapiens CEP85 570-656 alone; 18 °C, 100 mM Na-HEPES pH 7.7, 200 mM Na-Citrate, 36% MPD; 1.7 Å"}, "[5]": {"molecular_target": "T3, chicken STIL NTD (chicken (Gallus gallus), UniProt A0A8V1A6L7 1-365)", "T3 construct": "STIL, chicken (Gallus gallus), N-terminal domain (NTD), 66% identical to human STIL NTD; construct details in the Supplementary Information; also called Gallus gallus STIL NTD; STIL NTD WT", "T3 sequence (looked up)": "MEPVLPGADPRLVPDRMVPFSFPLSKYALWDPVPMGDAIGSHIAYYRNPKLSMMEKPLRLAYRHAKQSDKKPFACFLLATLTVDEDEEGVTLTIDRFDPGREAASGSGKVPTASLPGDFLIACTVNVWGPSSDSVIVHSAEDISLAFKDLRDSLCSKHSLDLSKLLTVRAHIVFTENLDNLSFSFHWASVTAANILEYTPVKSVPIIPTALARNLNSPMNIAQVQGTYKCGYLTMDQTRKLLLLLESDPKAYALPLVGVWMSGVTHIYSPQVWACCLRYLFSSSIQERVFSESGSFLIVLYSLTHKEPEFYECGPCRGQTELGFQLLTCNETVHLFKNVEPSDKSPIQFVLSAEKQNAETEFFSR", "assay": "ITC + AUC; recombinant chicken STIL NTD and human CEP85 cc4; affinity given as a range depending on the experimental conditions", "settings": "both partners purified"}},
  "data": [
    {"molecule": "3xFLAG-MAP7(17-282)-mCherry-CEP85 wild type mutant Q640A; E644A [human] / 3xStrep-GFP-tagged STIL [not stated] chain 2 Q640A, chain 2 E644A", "values": [
      {"measurement": "screen value", "setting": "[1]", "value": "11 % of cells"}
    ]},
    {"molecule": "3xFLAG-MAP7(17-282)-mCherry-CEP85 wild type mutant Q640A [human] / 3xStrep-GFP-tagged STIL [not stated] chain 2 Q640A", "values": [
      {"measurement": "screen value", "setting": "[1]", "value": "22 % of cells"}
    ]},
    {"molecule": "3xFLAG-MAP7(17-282)-mCherry-CEP85 wild type mutant E644A [human] / 3xStrep-GFP-tagged STIL [not stated] chain 2 E644A", "values": [
      {"measurement": "screen value", "setting": "[1]", "value": "47 % of cells"}
    ]},
    {"molecule": "chicken STIL NTD (domain or fragment) MEPVLPGADPRLVPDRMVPFSFPLSKYALWDPVPMGDAIGSHIAYYRNPKLSMMEKPLRLAYRHAKQSDKKPFACFLLATLTVDEDEEGVTLTIDRFDPGREAASGSGKVPTASLPGDFLIACTVNVWGPSSDSVIVHSAEDISLAFKDLRDSLCSKHSLDLSKLLTVRAHIVFTENLDNLSFSFHWASVTAANILEYTPVKSVPIIPTALARNLNSPMNIAQVQGTYKCGYLTMDQTRKLLLLLESDPKAYALPLVGVWMSGVTHIYSPQVWACCLRYLFSSSIQERVFSESGSFLIVLYSLTHKEPEFYECGPCRGQTELGFQLLTCNETVHLFKNVEPSDKSPIQFVLSAEKQNAETEFFSR", "values": [
      {"measurement": "Kd", "setting": "[2]", "value": "~30", "unit": "µM"},
      {"measurement": "Kd", "setting": "[3]", "value": 59, "unit": "µM"}
    ]},
    {"molecule": "H. sapiens CEP85 570-656 (CEP85 cc4) (domain or fragment, human, UniProt Q6P2H3 570-656, looked up, CEP85, human, fourth coiled-coil domain (cc4), residues 570-656; Limits are those printed for the crystallised construct; Parallel coiled-coil dimer in the crystals; monomer-dimer equilibrium in solution at room temperature; also called human CEP85 cc4; CEP85 coiled-coil) ESWQKRYDSLQKIVEKQQQKMDQLRSQVQSLEQEVAQEEGTSQALREEAQRRDSALQQLRTAVKELSVQNQDLIEKNLTLQEHLRQA", "values": [
      {"measurement": "stoichiometry N", "setting": "[4]", "value": 2},
      {"measurement": "Kd", "setting": "[5]", "value": "14 to 65", "unit": "µM"}
    ]}
  ]
}
